The text below walks through data of PMC9041834, “Ubiquitin ligase activity inhibits Cdk5 to control axon termination” (PLoS Genetics, 2022).

The target in this assay is T1, GFP::FSN-1 CRISPR (endogenous FSN-1 N-terminally fused with GFP) (C. elegans, UniProt Q18223 1-332).
T1 construct: FSN-1, F-box protein of C. elegans (orthologue of human FBXO45), expressed from the endogenous locus; also called bgg47; source: C. elegans, endogenous locus tagged by CRISPR/Cas9, in whole animal lysate; not shown: GFP, N-terminal, kept
T1 sequence (looked up): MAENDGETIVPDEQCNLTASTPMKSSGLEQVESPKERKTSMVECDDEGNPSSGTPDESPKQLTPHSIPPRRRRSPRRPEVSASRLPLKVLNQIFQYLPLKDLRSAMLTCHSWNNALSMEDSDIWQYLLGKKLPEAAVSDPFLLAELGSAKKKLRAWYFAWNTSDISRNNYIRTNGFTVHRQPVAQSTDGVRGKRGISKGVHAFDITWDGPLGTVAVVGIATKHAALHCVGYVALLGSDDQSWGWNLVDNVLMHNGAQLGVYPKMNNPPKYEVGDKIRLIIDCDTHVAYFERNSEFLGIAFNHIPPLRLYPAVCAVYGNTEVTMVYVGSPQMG
In words: co-IP; CRISPR-tagged endogenous proteins in whole animal lysates of C. elegans (wild-type background, and rpm-1 LD CRISPR background for the FSN-1 pair); 50 mM Tris HCl pH 7.5, 150 mM NaCl, 1.5 mM MgCl2, 10% glycerol, 0.1% NP-40, 1 mM DTT; anti-FLAG or anti-GFP, protein-G agarose 4 h at 4°C; immunoblot. The conditions noted are these: partners not purified.

B1: CDK-5::3xFLAG CRISPR (endogenous CDK-5 C-terminally tagged with 3xFLAG) (enzyme)
chain: not shown
notes: CDK-5, serine/threonine kinase of C. elegans (Cdk5 orthologue), expressed from the endogenous locus; also called CDK-5::FLAG; CDK-5::FLAG CRISPR; source: C. elegans, endogenous locus tagged by CRISPR/Cas9, in whole animal lysate; not shown: 3xFLAG, C-terminal, kept
For B1, the “fold change of co-precipitated CDK-5::FLAG, rpm-1 LD CRISPR background against wild-type background” value was roughly 6 fold.
